# Reference: patent WO2016073157A1 (dated 2016)
# Changes are numbered by the printed parent chain. Names may count otherwise.
# B1: 5A12 4.2 LC.Q89H/LC.L93K ("D") (Fab, V domains shown)
# VH: EVQLVESGGGLVQPGGSLRLSCAASGFTISDYWIHWVRQAPGKGLEWVAGITPAGGYTYYADSVKGRFTISADTSKNTAYLQMNSLRAEDTAVYYCARFVFFLPYAMDYWGQGTLVTVSS
# VL: DIQMTQSPSSLSASVGDRVTITCRASQFLSSFGVAWYQQKPGKAPKLLIYGASSLYSGVPSRFSGSGSGTDFTLTISSLQPEDFATYYCHQGLKSPLTFGQGTKVEIK
# notes: 5A12 4.2 variant; Fab on phage in the IC50 assay, purified Fab in SPR
# B2: 5A12 4.2 LC.Q89H (Fab, V domains shown)
# VH: B1 VH
# VL: B1 VL with K94L
# notes: 5A12 4.2 variant; Fab on phage in the IC50 assay; also called LC-89H
# B3: 5A12 4.2 (Fab, V domains shown)
# VH: B1 VH
# VL: B1 VL with H90Q, K94L
# notes: also called Fab5A12 4.2
# B4: 5A12 4.2 LC.Q89W (Fab, V domains shown)
# VH: B1 VH
# VL: B1 VL with H90W, K94L
# notes: 5A12 4.2 variant; Fab on phage in the IC50 assay; also called LC-89W
# B5: 5A12 4.2 LC.L92S (Fab, V domains shown)
# VH: B1 VH
# VL: B1 VL with H90Q, L93S, K94L
# notes: 5A12 4.2 variant; Fab on phage in the IC50 assay; also called LC-92S
# B6: 5A12 4.2.16.2 (Fab, V domains shown)
# VH: B1 VH with H35Y, T58E, A106V
# VL: B1 VL with A35G, H90W, K94L
# notes: purified Fab as analyte in SPR; also called DAF16.2
# B7: 5A12 4.2 LC.L93K (Fab, V domains shown)
# VH: B1 VH
# VL: B1 VL with H90Q
# notes: 5A12 4.2 variant; Fab on phage in the IC50 assay; also called LC-93K
# B8: 5A12 4.2 LC.A34N (Fab, V domains shown)
# VH: B1 VH
# VL: B1 VL with A35N, H90Q, K94L
# notes: 5A12 4.2 variant; Fab on phage in the IC50 assay; also called LC-34N
# How the values were obtained:
# [1] = molecular target: T1, hVEGF109 (human, UniProt P15692-4 34-135, limits assumed); experiment: phage competition ELISA (phage IC50), hVEGF109 in solution and on the plate, VEGF inferred
# T1 construct: Numbers count on the mature 165-amino acid VEGF, not on the precursor; also called human VEGF (hVEGF 109)
# T1 sequence (looked up): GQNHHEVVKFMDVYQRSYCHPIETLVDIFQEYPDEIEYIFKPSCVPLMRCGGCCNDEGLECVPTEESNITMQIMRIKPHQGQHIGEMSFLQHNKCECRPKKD
# [2] = molecular target: T2, human Fc fusion of Ang2 protein (human, UniProt O15123 275-496, limits assumed); experiment: BIACORE T200 SPR, human Fc fusion of Ang2 captured by anti-human Fc, Fab as analyte, Ang2 inferred
# T2 construct: Captured by anti-human Fc on the CM5 chip; also called hAng2 (SPR flow cell); not shown: human Fc
# T2 sequence (looked up): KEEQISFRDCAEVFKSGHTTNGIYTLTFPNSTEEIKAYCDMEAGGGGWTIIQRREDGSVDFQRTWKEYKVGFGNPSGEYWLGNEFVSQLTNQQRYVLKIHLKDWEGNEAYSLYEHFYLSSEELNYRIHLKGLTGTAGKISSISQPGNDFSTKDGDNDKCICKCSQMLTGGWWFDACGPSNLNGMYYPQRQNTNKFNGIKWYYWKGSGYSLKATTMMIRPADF
# [3] = molecular target: T1, hVEGF109; experiment: BIACORE T200 SPR, hVEGF109 coupled to CM5 chip, Fab as analyte, VEGF inferred
# [4] = molecular target: T1, hVEGF109; experiment: BIACORE SPR at 25 C; hVEGF109 immobilized on CM5 chip, variant clone as analyte (monovalent affinity)
# [5] = molecular target: T3, His-tagged human Ang2 (hAng2his8) (human, UniProt O15123 19-496, limits assumed); experiment: BIACORE SPR at 25 C; hAng2his8 immobilized on CM5 chip, Fab as analyte (monovalent affinity)
# T3 construct: neither is tied to this construct; not shown: His tag (his8)
# T3 sequence (looked up): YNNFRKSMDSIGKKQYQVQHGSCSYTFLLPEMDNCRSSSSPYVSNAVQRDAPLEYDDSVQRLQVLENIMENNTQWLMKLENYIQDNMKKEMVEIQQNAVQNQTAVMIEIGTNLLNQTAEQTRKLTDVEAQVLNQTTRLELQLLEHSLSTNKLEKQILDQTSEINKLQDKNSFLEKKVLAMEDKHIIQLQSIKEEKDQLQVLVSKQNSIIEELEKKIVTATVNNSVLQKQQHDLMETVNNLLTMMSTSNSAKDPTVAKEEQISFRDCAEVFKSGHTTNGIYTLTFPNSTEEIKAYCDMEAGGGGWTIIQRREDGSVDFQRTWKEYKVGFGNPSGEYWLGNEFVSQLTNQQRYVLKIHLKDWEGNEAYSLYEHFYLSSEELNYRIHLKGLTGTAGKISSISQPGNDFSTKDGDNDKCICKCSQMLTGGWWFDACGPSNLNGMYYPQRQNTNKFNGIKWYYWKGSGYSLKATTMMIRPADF
# [6] = molecular target: T1, hVEGF109; experiment: BIACORE SPR at 25 C; hVEGF109 immobilized on CM5 chip, Fab as analyte (monovalent affinity)
Binder,IC50 [1],other results
B1,3.71 nM,Kd [2]: 0.259 nM; Kd [3]: 0.675 nM
B2,0.138 nM,
B3,,apparent Kd (pooled screen) [4]: 5 nM
B4,2.55 nM,
B5,27.7 nM,
B6,,Kd [5]: 1.51 nM; Kd [6]: < 0.003 nM
B7,0.48 nM,
B8,221 nM,
